System: MS2 coat protein
Assay: apparent KD of MS2 coat protein; designed switch direction (-1 OFF switch, 1 ON switch): 1; higher = weaker reporter binding
Procedure, shortened: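 For each design, the apparent KD is the median over clusters of curves fitted to normalised cluster fluorescence. Clusters held RNA switches with common flanks, transcribed on Illumina chips by stalled E. coli RNA polymerase. These were titrated with SNAP-549-labelled MS2 coat protein, doubling from 0.7 or 1.5 nM to 3 µM, without input, with 200 uM small-molecule ligand, or with an oligonucleotide input.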

[1] = input ligand: microRNA oligo, concentration not stated
[2] = Eterna round: R95, input ligand: FMN 200 uM
[3] = Eterna round: R95, input ligand: microRNA oligo, concentration not stated
[4] = Eterna round: R95, input ligand: none

GUUAUUUAUGCAGGAUAUGAUUAACAUGAGGAUCACCCAUGUGGUGUUGUGAGUAAGGAGAGUGAUCAGAAGGGCAUUUUUUUU [JMF's solution 77] (Eterna round: R96, puzzle: Same State NG 2)
apparent KD of MS2 coat protein (input ligand: FMN 200 uM): 626 nM
apparent KD of MS2 coat protein [1]: 298 nM
apparent KD of MS2 coat protein (input ligand: none): 565 nM

UAUAAACAUGAGGAUCACCCAUGUAAUAAUAUGGGAGGAUAUCAGAAUGUAUUUAUGUAAUGAGAAGGCCUAAUAU [Mat - Same State 1 - Mod of Eli - D69] (puzzle: Same State 1)
apparent KD of MS2 coat protein [2]: 50.9 nM
apparent KD of MS2 coat protein [3]: 122 nM
apparent KD of MS2 coat protein [4]: 372 nM

AAUUUAAUACAUGAGGAUCACCCAUGUAAAUUAAUUAAGAUCUAGGAUAUCAGCUCGAAUAGAGCUGAGAAGGAGAUCACAUGU [SSNG3/19-B1] (Eterna round: R96, puzzle: Same State NG 3)
apparent KD of MS2 coat protein [1]: 13.8 nM

UUGAAGAAUUAAGGAUAUUGAAUACAUAUGUUUAACAUGAGGAUCACCCAUGUGGGUUGCGGUAUCGAGAAGGUAAAUUACUAG [JL SSNG2 1.49] (Eterna round: R96, puzzle: Same State NG 2)
apparent KD of MS2 coat protein (input ligand: FMN 200 uM): 112 nM
apparent KD of MS2 coat protein [1]: 76.3 nM
apparent KD of MS2 coat protein (input ligand: none): 119 nM

AUUAAACAUGAGGAUCACCCAUGUCAACAAAGUCGAGGAUAUGGGCAUAUUAUCUUCUUUCCAGAAGGCGAAUAAU [salish99_ss1_r3_089] (puzzle: Same State 1)
apparent KD of MS2 coat protein [2]: 431 nM
apparent KD of MS2 coat protein [3]: 136 nM
apparent KD of MS2 coat protein [4]: 404 nM

GGAGCCGGCCUAGGAUAUUUCAUAUAAAUACAUGAGGAUCACCCAUGUAGGCCAGAAGGCCUUGGGAAGAAGGAGGUCGGCUCC [Loop Effect - U25,U29] (Eterna round: R96, puzzle: Same State NG 2)
apparent KD of MS2 coat protein (input ligand: FMN 200 uM): 13 nM
apparent KD of MS2 coat protein [1]: 20.4 nM
apparent KD of MS2 coat protein (input ligand: none): 31.5 nM

UAGCAGUGCGGGUAGGAUAUGUAGGGUGGUACAUGAGGAUCACCCAUGUAUCCACCCUUCGACCGGCAGAAGGGCCUGUCACUGC [Edor] (Eterna round: R96, puzzle: Same State 2)
apparent KD of MS2 coat protein [1]: 13.2 nM

UUAAGCCACGGGCAGGAUAUGUAUUAAUAUACAUGAGGAUCACCCAUGUGCAGGUGUAACACCUGACAGAAGGGCCAAUCGCGGC [Soondi - 5] (puzzle: Same State 2)
apparent KD of MS2 coat protein [2]: 35 nM
apparent KD of MS2 coat protein [3]: 177 nM
apparent KD of MS2 coat protein [4]: 286 nM

GUUAUACAUGAGGAUCACCCAUGUCAAUGUAGUCGAGGAUAUGGGUUGCUAUGAGGCGUACUAGAAGGCGAGGAGU [JL-ss1-3.17 ViennaUCT mod] (puzzle: Same State 1)
apparent KD of MS2 coat protein [2]: 297 nM
apparent KD of MS2 coat protein [3]: 98.8 nM
apparent KD of MS2 coat protein [4]: 265 nM

UCGUCCUCGUGCUAGGAUAUCCAUCGUAAAACAUGAGGAUCACCCAUGUAGAAAUGCGCCUACGAGGAGAAGGAGCGAUGUGGAU [Velemageer] (Eterna round: R96, puzzle: Same State 2)
apparent KD of MS2 coat protein [1]: 14 nM

GGAGGAUGAGCGUAGGAUAUAGGAGGAGUGACAUGAGGAUCACCCAUGUGGUAGGAGGGAGGGUACUAGAAGGACGAGGAAGAGG [JR_SS2_Sub070] (puzzle: Same State 2)
apparent KD of MS2 coat protein [2]: 54.6 nM
apparent KD of MS2 coat protein [3]: 64.5 nM
apparent KD of MS2 coat protein [4]: 74.5 nM

AAAAUACAUGAGGAUCACCCAUGUCUAAAGAACGGAGGAUAUAGGCGUACAAAACACGCACUAGAAGGCUGGGUGC [Tesoonge] (puzzle: Same State 1)
apparent KD of MS2 coat protein [2]: 151 nM
apparent KD of MS2 coat protein [3]: 116 nM
apparent KD of MS2 coat protein [4]: 155 nM

GUGGUCAGACAUGAGGAUCACCCAUGUGGAAUAAAUAAGGGUUAGGAUAUGCAAUAUAGGAUAUAGCAGAAGGGAUGGUUGGUG (Eterna round: R96, puzzle: Same State NG 3)
apparent KD of MS2 coat protein [1]: 84.9 nM

AGUCCAGCCUAAGCUGGACAAAAGCAUGUACAUGAGGAUCACCCAUGUUCAUGUACAAGCUUUUUGCUCGUCAAAAG [Mat - hsa-mir-208a - Mod of JL - 68] (puzzle: Sensor for hsa-mir-208a)
apparent KD of MS2 coat protein [2]: 194 nM
apparent KD of MS2 coat protein [3]: 19.6 nM
apparent KD of MS2 coat protein [4]: 242 nM

GGAGGACAUGAGGAUCACCCAUGUGGAUGAUCGCUAGGAUAUGCGUAAAGGAGGAGUGGUGCAGAAGGAGUGGGAU [JR_SS1_Sub050] (puzzle: Same State 1)
apparent KD of MS2 coat protein [3]: 261 nM

UAUCCAUAGAUAGGAUAUCAGUAUACAUGAGGAUCACCCAUGUUAUAUUUGGUUUUAAUUUAGUCUGAGAAGGAUCUUGAUGAA [SameState NG2 #2] (Eterna round: R96, puzzle: Same State NG 2)
apparent KD of MS2 coat protein (input ligand: FMN 200 uM): 14.7 nM
apparent KD of MS2 coat protein [1]: 11.9 nM
apparent KD of MS2 coat protein (input ligand: none): 15.3 nM

AUUAAGAGCGUAGGAUAUGGGAAAGGAAGUGUACCAGAAGGACGAAUACAGCGUCCGGACAUGAGGAUCACCCAUGUAGGACGG [PowerStrip SSNG 1.18] (Eterna round: R96, puzzle: Same State NG 1)
apparent KD of MS2 coat protein (input ligand: FMN 200 uM): 10.4 nM
apparent KD of MS2 coat protein [1]: 23.9 nM
apparent KD of MS2 coat protein (input ligand: none): 56.2 nM

GUGGUGGGUUGAGGAUAUUGGUUGUUGUUGUUCUACAUGAGGAUCACCCAUGUGGGUUGUGGUUUUGAGAAGGUUGGUUGCUGG [salish99_SSNG2_r04_049] (Eterna round: R96, puzzle: Same State NG 2)
apparent KD of MS2 coat protein (input ligand: FMN 200 uM): 45.2 nM
apparent KD of MS2 coat protein [1]: 31.3 nM
apparent KD of MS2 coat protein (input ligand: none): 42.8 nM

GUCCAAAACACAGGAUAUCCCGGUCAAAAUCCGGGAGAAGGGUGGCCACAUGAGGAUCACCCAUGUGACGUGCGAGAGGCACGA [Diessorire] (Eterna round: R96, puzzle: Same State NG 1)
apparent KD of MS2 coat protein (input ligand: FMN 200 uM): 118 nM
apparent KD of MS2 coat protein [1]: 318 nM
apparent KD of MS2 coat protein (input ligand: none): 540 nM

CCCUCACAUGAGGAUCACCCAUGUCCUAGCCCGUCAGGAUAUAGCCCGCAUCCGCUGCGGCUAGAAGGGACAGCUG [JR_SS001_Sub611] (Eterna round: R96, puzzle: Same State 1)
apparent KD of MS2 coat protein (input ligand: FMN 200 uM): 177 nM
apparent KD of MS2 coat protein [1]: 152 nM
apparent KD of MS2 coat protein (input ligand: none): 232 nM

AAAACAUGACGAGGAUAUGGUACAUGAGGAUCACCCAUGUAUGUACCACGACGGAAACGUCGAAUCCAGAAGGCGUCAUGAAAA [Mat - Same State NG 2 - JL mod - D25] (Eterna round: R96, puzzle: Same State NG 2)
apparent KD of MS2 coat protein (input ligand: FMN 200 uM): 34.6 nM
apparent KD of MS2 coat protein [1]: 173 nM
apparent KD of MS2 coat protein (input ligand: none): 194 nM

GGCUGCAAUUAUGAGGAUAUGUUCGGAUGAACAUGAGGAUCACCCAUGUGGCGAUAGCUAUCUGUGCAGAAGGUGUAGUGGUAGC [Edlexete] (Eterna round: R96, puzzle: Same State 2)
apparent KD of MS2 coat protein (input ligand: FMN 200 uM): 57.9 nM
apparent KD of MS2 coat protein [1]: 90.7 nM
apparent KD of MS2 coat protein (input ligand: none): 186 nM

UUGAAGAAUUAAGGAUAUUGAGUACAUAUGUAAAACAUGAGGAUCACCCAUGUGGGUUGCGGUAUCGAGAAGGUAAAUUAAUAG [Mat - same State NG 2 - JL mod - D70] (Eterna round: R96, puzzle: Same State NG 2)
apparent KD of MS2 coat protein (input ligand: FMN 200 uM): 87 nM
apparent KD of MS2 coat protein [1]: 67.6 nM
apparent KD of MS2 coat protein (input ligand: none): 96.3 nM

CACAUCCAGGUAGGAUAUGAGGUGCCAUAGGGAAAAGCCUAUGGACAUGAGGAUCACCCAUGUCCUCAGAAGGGCCGGACGUGA [Ceerbearre] (Eterna round: R96, puzzle: Same State NG 2)
apparent KD of MS2 coat protein (input ligand: FMN 200 uM): 26.5 nM
apparent KD of MS2 coat protein [1]: 79.6 nM
apparent KD of MS2 coat protein (input ligand: none): 96.7 nM

UUUAUUAAUGCAGGAUAUGAUUAACAUGAGGAUCACCCAUGUGGUGUUGUGAGUAAGGAGAGUGAUCAGAAGGGCAUUUUUUUU [JMF's solution 39] (Eterna round: R96, puzzle: Same State NG 2)
apparent KD of MS2 coat protein (input ligand: FMN 200 uM): 524 nM
apparent KD of MS2 coat protein [1]: 430 nM
apparent KD of MS2 coat protein (input ligand: none): 402 nM

AUACAAAACACAAAUACAAACAAAUACAAACAUGAGGAUCACCCAUGUGCAAUACGACUCUUUAUGGCUGGUCUUCA [Onvete] (Eterna round: R96, puzzle: Sensor for hsa-mir-208a)
apparent KD of MS2 coat protein (input ligand: FMN 200 uM): 87.7 nM
apparent KD of MS2 coat protein [1]: 60.1 nM
apparent KD of MS2 coat protein (input ligand: none): 107 nM

GUACAGAUUAUAGGAUAUCACGUCGAUUAGACGUGAGAAGGAUAAUCCCACAUGAAUAUUAAUACAUGAGGAUCACCCAUGUAC [SSNG1/18-B2] (Eterna round: R96, puzzle: Same State NG 1)
apparent KD of MS2 coat protein (input ligand: FMN 200 uM): 24.2 nM
apparent KD of MS2 coat protein [1]: 22 nM
apparent KD of MS2 coat protein (input ligand: none): 30.5 nM

UUAAUGAUGUAAGGAUAUACAUGAGGAUUUCUCGUAGAAGGUACAGGACAUGAGGAUCACCCAUGUAUCGCUCCGUAGAGCGUA [JL SSNG1 1.11] (Eterna round: R96, puzzle: Same State NG 1)
apparent KD of MS2 coat protein (input ligand: FMN 200 uM): 136 nM
apparent KD of MS2 coat protein [1]: 292 nM
apparent KD of MS2 coat protein (input ligand: none): 356 nM

CAGCACUAUCGAGAGGAUAUGCGGUGAUGGACAUGAGGAUCACCCAUGUUAGCGAUGGCAUCACGGCAGAAGGCUCUGCUGCUGC [Soteed Omei mod 38] (puzzle: Same State 2)
apparent KD of MS2 coat protein [3]: 13.2 nM

UUGCUCGUGUGAGGAUAUGCAGCCGUUUCGGCUGCAGAAGGUACUAUAAUACAUGAGGAUCACCCAUGUCUCUGUUGUUUGGUG [salish99_SSNG1_r04_930] (Eterna round: R96, puzzle: Same State NG 1)
apparent KD of MS2 coat protein (input ligand: FMN 200 uM): 69.7 nM
apparent KD of MS2 coat protein [1]: 49.4 nM
apparent KD of MS2 coat protein (input ligand: none): 63.7 nM

AGUCCAGCCUGAGCUGGACAAAAGCAUGUACAUGAGGAUCACCCAUGUCAUGUACAAGCUUUUUGCUCGUCAUAAAA [Mat - hsa-mir-208a - Mod of JL - D8] (puzzle: Sensor for hsa-mir-208a)
apparent KD of MS2 coat protein [2]: 578 nM
apparent KD of MS2 coat protein [3]: 14.7 nM
apparent KD of MS2 coat protein [4]: 651 nM

GGAAUAUGAUGUUACAUGAGGAUCACCCAUGUAGUGACAACUAAGGAUAUCUGAAAAGAAGGAGAGGAGAAGGUAGGAUCAUAA [AK SSNG3-V2-14.1] (Eterna round: R96, puzzle: Same State NG 3)
apparent KD of MS2 coat protein (input ligand: FMN 200 uM): 25.7 nM
apparent KD of MS2 coat protein [1]: 23.1 nM
apparent KD of MS2 coat protein (input ligand: none): 36 nM

— the supplement of paper PMC9170038
